In a protein production outcome set (Wang et al. 2014):

Test: label from the status in PepcDB records

Row | Sequence | protein production
1 | PPKIRVVVRKRPISKKERERGDDDVVDVLAKNNTVVVNEEKVKVDLTKYLEKHAFKFDESLDENVSNEAVYQLTVGPLVRTLFRNGRASCFAYGQTGSGKTYTMSPLPIRASADIFTFMAQQQYRDISLCVSCFEIYGNKVFDLLNARKKLNILEDGKKKVVVVGLKEFGVDDVDGVKALIEESAKNRSTGSTAANADSSRSHSIMQFALKRAA | failed
2 | MSQIFVVFSSDPEILKEIVREIKRQGVRVVLLYSDQDEKRRRERLEEFEKQGVDVRTVEDKEDFRENIREIWERYPQLDVVVIVTTDDKEWIKDFIEEAKERGVEVFVVYNNKDDDRRKEAQQEFRSDGVDVRTVSDKEELIEQVRRFVRKVGSLEHHHHHH | not failed
3 | METMFDTLLQLPLFQGLCHEDFTSILDKVKLHFIKHKAGETIIKSGNPCTQLCFLLKGEISIVTNAKENIYTVIEQIEAPYLIEPQSLFGMNTNYASSYVAHTEVHTVCISKAFVLSDLFRYDIFRLNYMNIVSNRAQNLYSRLWDEPTLDLKSKIIRFFLSHCEKPQGEKTFKVKMDDLARCLDDTRLNISKTLNELQDNGLIELHRKEILIPDAQKLL | not failed
4 | MGFYLGITALKSIGNNKNNNIDNENNHQAKILTFPVSFTCRTFLPARGDILQGTVKKVLWNGAFIRSGPLRYAYLSLLKMPHYHYVHSPLSEDEKPHFQKDDLSKIAVGVVVRFQVLAVRFKERPHKRRNDYYVLATLEGNGSFGP | not failed
5 | MNEYDEECLLTFLKKQSQLFDEPVAETMEEAEAFLEDCMAVVVDSLDEVREYFEESGADVENMLEHHHHHH | not failed
6 | MKKLDASTAVSLTGMPELERIVESLCTPESYEAVYHQSLHGSPMPSLEALTELMARLRAALFPGYFGASNIVLESMRYHLAANLDSIYRILAEQVRRGGCFACADYATDCQNCESHSQETAMEFMRALPRIRQLLATDVKAAYEGDPAAKSPGETIFCYPSIYAMIHHRIAHELYRLDVPVIPRIISEMAHSRTGIDIHPGATVGEEFFIDHGTGVVIGETCIIGRGCRLYQGVTLGALSFPKDGGGALIKGIPRHPILQDGVTVYAGATILGRVTIGAGAIVGGNVWVTHDVAPGAKVVQQKSSPPAAEDRMVGTKNGTPKA | failed
7 | MTYKELATFLKVLSDSSRLEILDLLSCGELCACDLLAHFQFSQPTLSYHMKALVKTNLVTTRKIGNKHLYQLNHNIFESVINNLSKVHTSNQRCICHNLKTGEC | failed
8 | MRMENQKDLQENYLKVLERVELGSRVSGTVVNIMKDYVLVDIGYKSEGFIKIEEFENVPQVGDRLEAIVVRIGGELGLILSVEKLNSLNFQDKVYEYIQNKKIIKGKVLVELPNGYKIQINENVSGFMPFYLSSKSKDEKLKRGSVVEFYILEASEADGLRLILDRRTLEKERDLAKRIELVSSYNEEDVVDGVVERITEYGAIVKIKNFVTGILHKRNIAFNQVENVEDFVRVGDKLKLKIIKINPQTGKMELSLKALKANPWDSVDVKYKIDSIVKGKVVKILPFGAVIELDSELSGFLHISNFSWIRVVKSPQELIKLGQIVEVKILEIDKENQKISLGIKQINENPWERLTEKYPIGRVVQGVVTNITKTGAFVNIEEGIDAYVSKFDISWLEEIDPEEYFKIGDLVNGKVLEVDKRKRNVRLGIKQLEESPWEDFSKSYKKGDTIEVEIVEKKSKGFQVRVYNKIMGFISKIQLGDTKESSLETFEKLNVGDKLKVVITSIDSKDKSVLLSYREYENQRSREEISSYLFKGNDEESYKPFENLLKRDELEHHHHHH | not failed
9 | MATEKYHEILKKYFLSFETGDFSQVQFSCNLEFLSPISGNTLKGTEEVIPFLKGVTTRVAEVNIMSTTVEYPRASGVWQMRTTKGTLYTLHNFFRLDEEGIVYVWPMFDPKAVMENPDALIQWLTGKDY | not failed
10 | MADTSPSACLVFQGSGFYAKLSDFRACLTGFMLPLSPSLLPTLAAAVLYAAATFYQGSRLATGAKANKRLLVTLGILALLAHAASLLTHLLTPVGLGLDFFSAASLIAAAVIALTLLACWRIPVENLLVLLFPLGALTALLAQFVPTGTVPVIDEEPGILAHILLSILAYGMFTIAVFQALLLLVQDHQLKNKHPSGLIRNFPPLQTMESLLFGFLWAGWTLLSLSLISGWLFVENLFAQHLVHKTLLACLAWVVFSVLLWGRNRLGWRGHKAIRWTLAGFCLLMLAYFGSKLVREYILHI | failed
11 | MMSTKNGTNQARTSRDVGSELIYLTKALKAPALRDAAARLAERARDEGWSHEEYLAACLQREVAARDSHGAEGRIRAARFPSRKSLEDFDFDHQRSVKREVIAHLGTLDFVAGKENVIFLGPPGTGKTHLATGLGIRACQAGHRVAFGTAAQWVARLAEAHQAGRLSDELTRLGRIPLIVVDEVGYIPFEPEAANLFFQFISGRYERASVIVTSNKPFGRWGEVFGDDTVAAAMIDRLVHHAEVISLKGDSYRMRGRDLGRVPAANTGE | failed
12 | MDIVTLKDFYASVLGKRVQETLCGQLNLCWPDLTGKRVMGFGYALPYLSALRMRAQQCLAFMPAGQGALPWPCADKVATALVFEEDLPLPDASIDCILLIHALEYTENSFETLNEIWRVLVPNGQLIVIVPNRSGLWARNACTPFGYGEPYSRQQIVRLFEKTHFVSGSIQEVVHYMPSSGSVSRFFSFFYEPVARHLLPYFGGLLICQAQKRVYQGLEHHHHHH | failed
13 | MKLYQHIETLWDYMQLKQDLKPADCLFVMCSNDVRVAEHAAALYHQKLAPLIVFSGGEGRFTDGLFEKSEAETFADIARLAGVPSDAILVETRSTNSGENVRFTEQLLKEKGIQCESIILVQKPFMERRAIATFEKQWQSPYSQVQVSSTAHPFFEYINEDMPLMMVLEALMEDFSRVKSYPEKGFQTKQDIPNQVDSSYQVLLERFGFDLVLEHHHHHH | failed
14 | MVRRLTNGRWGLTLLILALMYIIALGLMARPAAADPGITLVLNGSRVNPSVPAYTDSNGRTMVPVRFVMEHMGGRVEWLDAEQGIVVSRGATTLKMWIGKRQAQVNGQAIDLDTVPVLQDGTSMVPVRFVAQAFGGKVEWDDASRTVSIWLGTASPAGQVRITGSYVNVRTGPGTSYGVIDVLPRDTLVQLLATGDGWYQVQLPDGRQGWVSASYSEVLQGNNQPQDTNPPGNNQPGNGQSPGNNPSPGNNQPGNEEPPSGQPLGTAIIGNKPVAILAGPNPVEKQVGMAPAGSRLPIWQQQGDWWLVELDNGLRGWLASSLATFSPEKPGQDNGGSETGNGGTAPGEGNQGVGNSDSNSLKITGVTVNPGPDWIEVTVQGTRPFTFKSSRWADHLIFDIPGATLAVAPGQDKVEVNRQPLARVRLGQYDANTVRVVCDLNGAANFTTTTAGSTITIRLQKPSVRGAKIVIDPGHGTDPQGSDPGAIGPSGVQEKDVNLAISRKLAELLRAAGATVYMTRDGETTPYTLSGRAYYANEVGADLFICIHSNASLSPSASGTSTYFYAPPGTALGEQRDARQRLATLIQRDLVAAIGRRDLGVKEANFAVLRNTKMPSVLVETAFISNPTEEQLLASPDFQALVAQGIFNGISDYLSGQ | failed
15 | MNEIHQPLARRVWRSNVDEEMARMAECLKRFPLIAFDTEYPGIIFRTYFDSSSDECYRAMKGNVENTKLIQCGFTLFNAKGEIGGVWEINFSNFGDPSDTRNELSIEFLRRHGLDLQKIRDEGVDMFGYGFFPKLMTVFRSQKHVEFVTFQGAYDFAYFLSILNHGKLPETHGEFATEVVKVFGQVYDTKVMAGFCEGLGEHLGLSKLAQLLQITRVGRAHHAGSDSLMTALVFIKLKHVYEDSRFARGLIYGIGKSNLVAAPAPAPVPEPTLPLMCQQNVASYPVFHNGYVQNYEQPQLVSYDPSGAPWAFCNATGTYVQLTHLPASTFAYPSQTPSATVDYLGPVPNYYNNNACYVVE | failed
16 | MNQLTAYTLRLGDNCLVLSQRLGEWCGHAPELEIDLALANIGLDLLGQARNFLSYAAELAGEGDEDTLAFTRDERQFSNLLLVEQPNGNFADTIARQYFIDAWHVALFTRLMESRDPQLAAISAKAIKEARYHLRFSRGWLERLGNGTDVSGQKMQQAINKLWRFTAELFDADEIDIALSEEGIAVDPRTLRAAWEAEVFAGINEATLNVPQEQAYRTGGKKGLHTEHLGPMLAEMQYLQRVLPGQQW | not failed
17 | MDGRDLVRSVKAVGSGGAAGGLRTVRAAWRRRRADASGLPRRGAERARVPGPVQGVVPGPGGGVIRFARSELRITVAVNGAVFWGWDGAGPEPSYALAGRCPEPDPRAVLEPDKDGGWQVVAERGTVMVSRHGAVEVRTPGGVTLRRDLPPRWWEPADGGAAHWMQRSEVAADARFFGLGGRAAGPRLRGGTYRLWNTDPGHAVGPGDDPLYLTMPVQLVVADAATHLVFHDTSWDGTVTLREGEEGAGSGHDRAGTSELRMDGGPLRCWVMMGTPARVLHTWASLTGAPALPPAWALGHHHARRGSGSEQEVRGVVSGYQERGLPLDAVHLDNDHYDAHQVFTVDRDRFPKLPVLAEELRRDGIRLVSVVDPAVRAEPGNAVYDAGSAQDAFVRDAAGRVVEGVVWPGESVYPDFTHARVRKWWGGLYEERLAQGFAGFWHDLNEPVSFTAFGENTLPRSARHLLEGRGGDHREAHNVYALGMARAGYEGLRELSPQERPFIFSRSGWSGMQRYGGAWSGDVTTGWPGLRASLSLVIGLGLCGVPYSGPDVGGFDGSPSPELYLRWFQLGSYLPLFRTRAGLRAGRRELWEFGEDVLEHARVALVERRRLLPYFMTLAHLARRTGAPYVRPVWWGAPEDRALRDCEDAFLLGDSLLVAPVLDPGADRRAVQLPRGRWYDTVTEKAYDGPGQVLIGAPLSRIPVLARAGAVLPVRGDGGRLELEVWRPARGRTGGGLVVPDSGDGWDEPEIEQYVTRLRGQRVVVERDGDEGPGEPSYPVRVRGLPQA | failed
18 | NPHMWWLQDADPENNSRQASPSQESINQLVYMGFDTVVAEAALRVFGGNVQLAAQTLAHHGGSLPPDLQF | not failed
19 | MSLQTCVLHRLSLPLKFPMRTAHGHIREKQAILVQLVDADGIEGWSECVALAEPTYTEECTDTAWVMLVHHLVPRFARWLRAASQDQDVDPRTVCEALRDVRGNRMSVAAIEMAVWDWYAARTGQPLVGLLGGGRDRVEVSATLGMSESLDVLIQSVDAAVEQGFRRVKLKIAPGRDRAAIKAVRLRYPDLAIAADANGSYRPEDAPVLRQLDAYDLQFIEQPLPEDDWFDLAKLQASLRTPVCLDESVRSVRELKLTARLGAARVLNVKPGRLGGFGATLRALDVAGEAGMAAWVGGMYETGVGRVHGLIAAALPLMRYATDLGPSDRYFEQDVLKEPIAFVEPGVIQVPQCAGVADWVDRDAVRRFSTATWSVDLRTLEGHHHHHH | not failed
20 | MLTAPPKEAARPTLMPRAQSYKDLTHLPAPTGKIFVSVYNIQDETGQFKPYPASNFSTAVPQSATAMLVTALKDSRWFIPLERQGLQNLLNERKIIRAAQENGTVAINNRIPLQSLTAANIMVEGSIIGYESNVKSGGVGARYFGIGADTQYQLDQIAVNLRVVNVSTGEILSSVNTSKTILSYEVQAGVFRFIDYQRLLEGEVGYTSNEPVMLCLMSAIETGVIFLINDGIDRGLWDLQNKAERQNDILVKYRHMSVPPESLEHHHHHH | failed
21 | GAPLQRMLDEIAGHAACPVVVTNLAHRVLATAGERSAVDDVLRDWERIARQAGGSEGAGWVRAELGGRGERWGRIVLCGYRGDAATGRLLADRAAEALVLHRMLGGSAHTWEEQSAQGLLTDLVSGVVPARQLLPRARAAGLPVNRRTFVPLVVRDGEPPVLDRVLRMLGLPGLVAELADGATAVLLSLARDQDAEALSAHFATRLRTESGASGTVVAAADPRTAWDDVPAGLREAQHVADAVAENSAVLDLPAVVRLRDVHLRGLIRLLRDDPYVQSFAERELNGLLCGRDAESDLLPVLRTYLATGRNKSRTAQLHHVSRPALYRRLEAIQARLGVDLDDFEQAASVHIALLAHDAQQ | failed
22 | MRITTLEELLEALDELFDDGSDLTRRGAQDPWERVFSQPGHPLASDLPDACLVDWTRQGLLPSGDGLTALDLGCGLGRNARWLARQGYAVTGLDLSPYAVGQARERTPGPDIRYLEGDVLRDPIPGGPFDVVYDSGCFHHLPPHRRLSYLHTLGQVLRPGGWFGLCTFAWGRMGSAKSDLELLRQGQLEGGVGYTLDDLREMFGGLDFVTGSLLSELEPASEPVFQMDFLQAALFRRPE | failed
